Test: yeast display, Sf9 membrane polyspecificity reagent, FACS + sequencing; frameworks hold sequencing errors
In short: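 A synthetic nanobody library was expressed on Saccharomyces cerevisiae BJ5465 by galactose induction for 36–48 hours. The library was stained for 1 hour at 4 °C with 10% biotinylated, detergent-solubilized Sf9 membrane reagent and enriched with streptavidin microbeads before FACS. Low and high (top ~1%) gates were set on anti-HA fluorescence for expression and streptavidin fluorescence for reagent binding, and each polyreactivity label reflects the gate of origin.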

| Sequence | polyreactivity (PSR sort gate) |
| --- | --- |
| QVQLVESGGGLVQSGGSLRLSCAASGSTFNYYAMGWYRQAPGKERELVAVINKSGGRTNYADSVKGRFTISRDNAKNTVYLQMNSLKPEDTAVYYCNKVTRREGSYGYPSRYEYWGQGTQVTVSS | high polyreactivity |
| QVQLVESGRGLVQAGGSLRLSCGASGRTFGYYGMVGYRQATGKERELVASISRRGVSTYYADSVKGRFTISRDNAKNTVYLQMNSLKPEDTAVYYCAKDYWGYKYDYWGKGTQVTVSS | high polyreactivity |
| QVQLVESGGGLVQAGGSLRLSCAASGRTFPGYGMGWYRQAPGKERELVAVITSNGGITYYADSVKWRFTISRDIAKYTVYLVMNRLIAEDTAVYFCAAYEIYYEFVCWGQGSQVTVSS | low polyreactivity |
| QVQLVESGGGLVQAGGSLRLSCAASGFIFQSYAMGWYRQAPGKERELVAAITRSGGRTYYADSVKGRFTISRDNAKNTVYLQMNSLKPEDTAVYYCAAETSYPGIYRFYYWGQGTQVTVSS | high polyreactivity |
| QVQLVDSGGGLVQAGGSLRLSCAASGSTFYFKAMGWYRQAPGKEREFVATIRSGGSTYYADSVKGRFTISRDYAKNSVYLQMNSLTPEDTAVYYCAADLVDSYQWSIFLYGYWGQGTQVTVSW | low polyreactivity |
| QVQLVESVGGLVQAGGRLRLTCAASGFIFTHYAMVWYRQAPGKERELVAAISWNGGRTYYADSVKGRFTISRDNANITVYLQMNSLKPEDTAVYYCAARIYLSKSFNFWGQGTQVTVSS | high polyreactivity |
| QVQLVESGGGLVQAGGSLRLSCAASGRIFGANAMGWYRQAPGKERELVAVITGGGGTYYADSVKGRFTISRDNSKNTVYLQINSLKPEDTAVYYCDWPRYYYTYPSHPMDYWGQGTQVTVSS | low polyreactivity |
| QVQLVESGGGIVQAGGSLRLSCAASGSTFDGYAMGWYRQAPGKERELVAAITRSGGSTYYADSVKGRFTISRDNAKNTVYLQMNSLKPEDTEVYYCNKYGYKGGVGYDYWGQGTQVTVSS | high polyreactivity |
| QVQLVESGGGLVQAGGSLRLSCAASGRTFFPNEMGWYRQAPGKERELVAAITSAGSTNYADSVKGRFTISRDNEKTTVYLQMNSLKPEETAVYYCAAVYPPIHQRYIVDYWGQGTQETVSS | low polyreactivity |
| QLQLVESGGGLVQAGGSLRLSCAASGRIFKLNAMGWSRQAPGKERELVAAINSGTRTYYADSVKGRFTISRDNAKNTVYLQMNSLKPEDTAVYYCAAEGVWWYSRYDYWGQGTQVTVSS | high polyreactivity |
| QVQLVESGGGLVQAGCSLLLSCAASGRSFTHNAMGWYRPAHGPERELGAAITSRGRTTYADSVKGRFTISRDNAKNTVYVQMNSLKPEDTAVYYCATSVWFPITSYDYWGQGTQVTVSS | low polyreactivity |
| QVQLVESGGGLVQAGGSLRLSCAASGRIFRHNTLGWYRQAPGKEREFVAAISRNGGITYYADSVKGRFTISRDNAKNTVYLQMNSLKPEDTAVYYCNAYTYRQNDYWGQGTQVTVSS | high polyreactivity |
| QVQLVESGGGLVQAGGSLRLSCAASGYTFIVNAMGWYRQAPGKERELVAGISYRGGRTFYADSVKGRFTISRDNAKNTVYLQMTSLKPEDTAVYYCAARKTGIPFYNYDYWGQGTQVTVSS | low polyreactivity |
| QVQLVESGGGLVQAGGSLRLSCAASGSTLVYNDMGWYRQAPGKEREFVAAIRSNDGSTYYADSVKGRFTISRDNAKNTVYLQMNSLKPEDTAVYYCATTQAYRGENYNYWGQGTQVTVSS | low polyreactivity |
| QVQLVESGGGLVQAGGSLRLSCAASGSTLWDYAMGWYRQAPGKERELVAAITQDGGSTYYADSVKGRFTISRDNAKNTVYLQMNSLKPEDTAVYYCAAEYWYDGGGYWGQGTQVTVSS | low polyreactivity |
| QVQLVESGGGLVQAGGSLRLSCAASGRIFARYAMGWYRQAPGKERELVAAITKSVGSTYYADSVKGRFTISRDNAKNTVYLQMNSLKPEDTAVYYCNAVARGYGYDYWGQGTQVTVSS | high polyreactivity |
| QVQLVESGGGVVQAGGSLRLSCAASGRTFGWNTMGWYRQAPGKERELVAAISYSTGRTYYADSVKGRFTISRDNAKYTVYLQMNSLKPEDTAVYYCAATRPYRYNYWGQGTQVTVSS | high polyreactivity |
